Source: article PMC9426524

System: CC(=O)C=O
Assay: purified protein

E. coli YajL (Escherichia coli K-12) was tested. Which Km did it give?
The Km was 95 ± 18 µM.
